Measurements: publication PMC2847587

Columns and labels:
Test in all cases: immunodepletion
[1] = target: FAAP24 (human (endogenous in HeLa)) (UniProt Q9BTP7)
[2] = target: FANCA (human (endogenous in HeLa)) (UniProt O15360)
[3] = target: MHF1 (FANCM-associated Histone Fold protein 1) (human (endogenous in HeLa)) (UniProt Q8N2Z9)
[4] = target: MHF2 (FANCM-associated Histone Fold protein 2) (human (endogenous in HeLa)) (UniProt A8MT69); details: remark: other sources report otherwise
Chain of MHF2 (FANCM-associated Histone Fold protein 2) (human (endogenous in HeLa)) (A8MT69 whole entry): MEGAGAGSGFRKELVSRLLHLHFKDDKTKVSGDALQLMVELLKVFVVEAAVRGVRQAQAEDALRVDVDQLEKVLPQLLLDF

Chain of FAAP24 (human (endogenous in HeLa)) (Q9BTP7 whole entry): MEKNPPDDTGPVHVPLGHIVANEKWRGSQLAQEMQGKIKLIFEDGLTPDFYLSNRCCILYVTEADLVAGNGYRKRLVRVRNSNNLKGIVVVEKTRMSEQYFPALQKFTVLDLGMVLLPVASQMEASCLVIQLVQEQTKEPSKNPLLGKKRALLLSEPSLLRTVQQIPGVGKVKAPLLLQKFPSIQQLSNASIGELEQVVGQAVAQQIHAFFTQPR
Chain of MHF1 (FANCM-associated Histone Fold protein 1) (human (endogenous in HeLa)) (Q8N2Z9 whole entry): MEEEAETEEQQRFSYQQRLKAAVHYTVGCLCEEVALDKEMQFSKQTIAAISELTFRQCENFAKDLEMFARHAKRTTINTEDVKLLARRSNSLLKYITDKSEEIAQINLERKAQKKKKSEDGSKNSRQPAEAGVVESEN
Chain of FANCA (human (endogenous in HeLa)) (O15360 whole entry): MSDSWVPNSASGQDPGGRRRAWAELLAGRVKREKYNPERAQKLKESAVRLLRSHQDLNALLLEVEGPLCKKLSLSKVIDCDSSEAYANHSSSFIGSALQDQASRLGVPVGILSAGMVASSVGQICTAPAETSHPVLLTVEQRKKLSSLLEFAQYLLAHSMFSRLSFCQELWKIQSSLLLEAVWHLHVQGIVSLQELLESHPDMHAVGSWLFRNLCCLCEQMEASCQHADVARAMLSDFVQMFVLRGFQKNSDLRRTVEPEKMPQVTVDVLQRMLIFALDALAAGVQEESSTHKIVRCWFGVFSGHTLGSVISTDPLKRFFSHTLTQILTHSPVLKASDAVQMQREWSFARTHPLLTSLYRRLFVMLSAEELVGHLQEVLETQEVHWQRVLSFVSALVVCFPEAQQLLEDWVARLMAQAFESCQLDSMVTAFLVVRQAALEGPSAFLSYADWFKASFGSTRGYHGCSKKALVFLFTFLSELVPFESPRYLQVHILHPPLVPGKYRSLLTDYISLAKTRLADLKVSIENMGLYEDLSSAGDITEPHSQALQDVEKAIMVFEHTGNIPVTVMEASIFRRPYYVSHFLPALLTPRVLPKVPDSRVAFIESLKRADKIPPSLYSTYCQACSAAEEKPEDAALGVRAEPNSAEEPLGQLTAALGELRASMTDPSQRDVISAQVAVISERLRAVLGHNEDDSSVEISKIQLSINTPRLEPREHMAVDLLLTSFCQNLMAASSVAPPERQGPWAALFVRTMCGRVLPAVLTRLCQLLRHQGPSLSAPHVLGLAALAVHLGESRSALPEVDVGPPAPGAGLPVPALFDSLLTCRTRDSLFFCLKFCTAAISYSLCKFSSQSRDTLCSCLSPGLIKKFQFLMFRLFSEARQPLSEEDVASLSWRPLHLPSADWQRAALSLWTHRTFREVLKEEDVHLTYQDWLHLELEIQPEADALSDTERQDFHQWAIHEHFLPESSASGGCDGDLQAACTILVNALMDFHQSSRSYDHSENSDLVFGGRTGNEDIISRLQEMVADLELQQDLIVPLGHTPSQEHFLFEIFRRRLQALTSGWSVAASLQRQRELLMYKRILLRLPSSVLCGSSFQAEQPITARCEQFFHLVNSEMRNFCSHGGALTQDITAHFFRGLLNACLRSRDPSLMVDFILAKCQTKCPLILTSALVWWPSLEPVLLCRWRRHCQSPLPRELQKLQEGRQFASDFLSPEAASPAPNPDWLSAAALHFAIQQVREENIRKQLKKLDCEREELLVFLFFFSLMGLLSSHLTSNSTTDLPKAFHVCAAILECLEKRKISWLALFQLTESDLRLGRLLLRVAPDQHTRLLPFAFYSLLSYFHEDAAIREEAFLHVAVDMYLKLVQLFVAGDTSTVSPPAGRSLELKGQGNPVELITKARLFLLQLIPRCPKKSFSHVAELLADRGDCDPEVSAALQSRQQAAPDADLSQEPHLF

percent co-depleted [1]: 70% | percent co-depleted [2]: < 30% | percent co-depleted [3]: 85% | percent co-depleted [4]: 85%
Substance: FANCM, Q8IYD8 1-2048
